Data set [1] addresses T1, Csa3a (SsCsa3a) (Saccharolobus solfataricus P2, UniProt Q97Y88 1-237).
T1 sequence: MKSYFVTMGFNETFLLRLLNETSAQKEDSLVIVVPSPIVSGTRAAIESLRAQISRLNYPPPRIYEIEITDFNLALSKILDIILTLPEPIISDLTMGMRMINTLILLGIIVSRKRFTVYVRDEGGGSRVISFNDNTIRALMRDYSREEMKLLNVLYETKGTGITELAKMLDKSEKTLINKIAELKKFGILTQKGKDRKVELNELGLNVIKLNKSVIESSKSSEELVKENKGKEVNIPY
Kind of data set: fluorescence polarization. The following applies: 37 C 30 min, 18 nM DNA (5.2 ng/uL), +/-10 uM cA4, 2% agarose, FP: 20 mM SPG, 50 mM NaCl, pH 6.5, 50 C (also 21 C), 30 nM DNA, ITC: 10 mM Tris. For orientation: Fluorescence polarisation rises when a labelled molecule tumbles more slowly, as on binding a larger partner.

The target in data set [2] is T2, Csa3a (SsCsa3a, Sso1445) (Saccharolobus solfataricus, UniProt Q97Y88).
T2 construct: gene csa3; 6×His-tagged Sso1445 (pEXP14-6×His-Sso1445), homodimer; crystal model lacks residues 213–237 of both chains and 160–162, 174–176, 192–195 of chain A
T2 sequence (Q97Y88 1-237): T1 sequence
Put plainly: ITC at […] °C; co-crystal structure at […] Å. Format: binding.

Data set [3] deals with the molecule itself. Kind of data set: crystal structure; Csa3a co-crystallised with cA4 by hanging drop vapor diffusion at 22 °C; 2.45 Å; space group P212121; one Csa3a dimer in the asymmetric unit.
Data set [4] addresses T1, Csa3a (SsCsa3a). Put plainly: ITC; 25 C; 250-500 uM cA4; n about 0.6 per dimer; endothermic; EMSA: TAE, 37 C 30 min, 18 nM DNA (5.2 ng/uL), +/-10 uM cA4, 2% agarose; FP: 20 mM SPG, 50 mM NaCl, pH 6.5, 50 C (also 21 C), 30 nM DNA; ITC: 10 mM Tris, 50 mM. To be noted: protein: recombinant; tags: 6xHis (pEXP14-6xHis-Sso1445); chain copies: 2; cyclic, single copy per Csa3a dimer. (Isothermal titration calorimetry measures the heat released or taken up as one component is titrated into another.)

These results are taken from PMC8699464, “Cyclic Tetra-Adenylate (cA4) Recognition by Csa3; Implications for an Integrated Class 1 CRISPR-Cas Immune Response in Saccharolobus solfataricus” (Biomolecules, 2021).

20 bp CAPPa, I-A (2) cas4a promoter: the Kd was found to be 2.7 µM in data set [1] (10 uM cA4, 50 C, EMSA: TAE) and 3.2 µM in data set [1] (no cA4, 50 C, non-cooperative, EMSA: TAE).

Regarding 75 bp I-A (2) cas4a CAPPa fragment, the Kd in data set [1] (10 uM cA4, 50 C, cooperative, EMSA: TAE) turned out to be 0.21 µM; in data set [1] (no cA4, 50 C, cooperative, Hill about 2, EMSA: TAE), 0.27 µM.

Turning to `Nc1ncnc2c1ncn2[C@@H]1O[C@@H]2COP(=O)(O)O[C@H]3[C@@H](O)[C@H](n4cnc5c(N)ncnc54)O[C@@H]3COP(=O)(O)O[C@H]3[C@@H](O)[C@H](n4cnc5c(N)ncnc54)O[C@@H]3COP(=O)(O)O[C@H]3[C@@H](O)[C@H](n4cnc5c(N)ncnc54)O[C@@H]3COP(=O)(O)O[C@H]2[C@H]1O` [cA4, cyclic tetra-adenylate], the dissociation constant (Kd) in data set [2] was 1 to 1.5 µM.

B1: Saccharolobus solfataricus Csa3a (Sso1445) (natural protein, UniProt Q97Y88 1-237, looked up)
chain: T1 sequence
notes: Csa3a (Sso1445) of Saccharolobus (Sulfolobus) solfataricus P2, with an N-terminal CARF domain and a C-terminal winged helix-turn-helix domain; also called SsCsa3a; SsCsa3; source: E. coli BL21 (DE3)-pRIL, purified (heat step at 60 °C, Ni-NTA, Superdex 75)
Regarding B1, in data set [3], the binding result is “binds”.

As to AAAA (ssRNA, cyclic, 3'-5' linked?) [cA4 (cyclic tetra-adenylate)], in data set [4], the Kd came to 1.23 µM.

A word on the Kd: it is the constant that tells how readily two partners part at equilibrium.
